From patent US20240069021A1 (ASAHI KASEI, published 2024)

Tests used:
[1] = target: ribosomal protein L7/L12 of Staphylococcus aureus (SA), recombinant tagged fusion protein (Staphylococcus aureus); experiment: ELISA on coated recombinant L7/L12, antibody 10 ug/mL
[2] = target: T1, ribosomal protein L7/L12 of Bacillus subtilis (BS), recombinant tagged fusion protein (Bacillus subtilis, UniProt P02394 1-123); experiment: as above
T1 sequence: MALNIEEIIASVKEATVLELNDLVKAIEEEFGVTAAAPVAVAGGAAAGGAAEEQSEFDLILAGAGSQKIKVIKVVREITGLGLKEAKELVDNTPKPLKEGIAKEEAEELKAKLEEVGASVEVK

[3] = target: ribosomal protein L7/L12 of Citrobacter freundii (CF), recombinant tagged fusion protein (Citrobacter freundii); experiment: as above
[4] = target: ribosomal protein L7/L12 of Rahnella aquatilis (RA), recombinant tagged fusion protein (Rahnella aquatilis); experiment: as above
[5] = target: ribosomal protein L7/L12 of Salmonella enterica (SE), recombinant tagged fusion protein (Salmonella enterica); experiment: as above
[6] = target: T2, ribosomal protein L7/L12 of Pseudomonas aeruginosa (PA), recombinant tagged fusion protein (Pseudomonas aeruginosa, UniProt Q9HWC8 1-122); experiment: as above
T2 sequence: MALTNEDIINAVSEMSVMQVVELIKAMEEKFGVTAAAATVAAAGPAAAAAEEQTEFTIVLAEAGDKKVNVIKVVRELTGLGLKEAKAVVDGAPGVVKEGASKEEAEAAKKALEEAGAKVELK

[7] = target: ribosomal protein L7/L12 of Enterobacter cloacae (ECL), recombinant tagged fusion protein (Enterobacter cloacae); experiment: as above
[8] = target: ribosomal protein L7/L12 of Listeria monocytogenes (LM), recombinant tagged fusion protein (Listeria monocytogenes); experiment: as above
[9] = target: ribosomal protein L7/L12 of Serratia liquefaciens (SL), recombinant tagged fusion protein (Serratia liquefaciens); experiment: as above
[10] = target: ribosomal protein L7/L12 of Klebsiella pneumoniae (KP), recombinant tagged fusion protein (Klebsiella pneumoniae); experiment: as above
[11] = target: T3, ribosomal protein L7/L12 of Escherichia coli (EC), recombinant tagged fusion protein (Escherichia coli, UniProt P0A7K2 1-121); experiment: as above
[12] = target: T3, ribosomal protein L7/L12 of Escherichia …; experiment: ELISA on coated recombinant L7/L12 (10 ng/mL), antibody 10 ug/mL, A450; + means absorbance >= 0.3

B1: Generic Antibody A (PA51B2) (antibody, V domains shown)
VH: QVQLQQPGSVLVRPGASVKLSCKPSGYTFTGSWMHWTKQRPGQGLEWIGEIHPYSGNTNYNEKFRVKATLTVDTSSSTTYVDLSSLTSDDSAVYYCASGDFDAGFTYWGQGTLVTVSA
VL: DIVLTQSPASLAVSLGRRATISCKASQSVDYDGDSYMNWYQQKPGQPPKLLIYVASNLESGIPARFSGSGSGTDFTLNIHPVEEEDAATYYCQQTNEDPFTFGAGTKLELK
[1]
  absorbance (450 nm): ≥ 0.3
[2]
  absorbance (450 nm): ≥ 0.3
[3]
  absorbance (450 nm): ≥ 0.3
[4]
  absorbance (450 nm): ≥ 0.3
[5]
  absorbance (450 nm): ≥ 0.3
[6]
  absorbance (450 nm): ≥ 0.3
[7]
  absorbance (450 nm): ≥ 0.3
[8]
  absorbance (450 nm): ≥ 0.3
[9]
  absorbance (450 nm): ≥ 0.3
[10]
  absorbance (450 nm): ≥ 0.3
[11]
  absorbance (450 nm): ≥ 0.3

B2: Generic Antibody C (CP141A190.1) (antibody, V domains shown)
VH: QVQLQQPGAELVKPGASVKLSCKTSGYNFTSNWIHWVKQRPGQGLEWIGEINPSNGRANYNEKFKNKATLTVDKSSSTAFMHLSSLTSEDSAVYFCSRGDFDEGFTYWGQGTLVTVSA
VL: QIVLTQSPAIMSASLGERVTMTCTASSNVNSDYLHWYQQKPGSSPRLWIYTTSNLASGVPTRFSGNGSGTSYSLTISSMEAEDAATYYCHQYHRSPRTFGGGTKLEIK
[1]
  absorbance (450 nm): ≥ 0.3
[2]
  absorbance (450 nm): ≥ 0.3
[3]
  absorbance (450 nm): ≥ 0.3
[4]
  absorbance (450 nm): ≥ 0.3
[5]
  absorbance (450 nm): ≥ 0.3
[6]
  absorbance (450 nm): ≥ 0.3
[7]
  absorbance (450 nm): ≥ 0.3
[8]
  absorbance (450 nm): ≥ 0.3
[9]
  absorbance (450 nm): ≥ 0.3
[10]
  absorbance (450 nm): ≥ 0.3
[11]
  absorbance (450 nm): ≥ 0.3

B3: Specific Antibody D (EC50C1) (antibody, V domains shown)
VH: QVQLQQSGAELAKPGASVKMSCKASGYTFTSYWMNWVKQRPGQGLEWIGYINPNTGYTEYDQKFKDKATLTADKSSSTAYMQLSSLTSEDSAVYYCARYWAYFEYWGQGTTLTVSS
VL: DIKMTQSPSSMYASLGERVTITCKASQDINSYLSWFQQKPGKSPKTLIYRANRLVDGVPSRFSGSGSGQDYSLTISSLEYEDMGIYYCLQYDEFRTFGGGTKLEIK
[12]
  binding result: binds

B4: Specific Antibody A (HI142D11.3) (antibody, V domains shown)
VH: EVQLQQSGAELVKPGASVKLSCTASGFNIKDTYIHWVKQRPEQGLEWIGRIDPANGNTKYDPKFQGKATITADTSSNTAYLQLSSLTSEDTAVYYCPRPYGYVGWYFDVWGAGTTVTVSS
VL: DIVMTQSHKFMSTSVGDRVSITCKASQDVRNAVAWYQQKPGQSPKLLISSASYRYSGVPDRFTGSGSGTDFTFTISSVQAEDLAVYYCQQHYDTPPTFGGGTKLEIK
[12]
  binding result: binds

B5: Generic Antibody B (LP54A3) (antibody, V domains shown)
VH: EVQLQQSGAELVKPGASVRLSCSASGFNIKDTYMHWMRQRPEQGLEWIGRIDPANGNAKYDPKFQVKATITADTSSNTASLQFSSLTSEDTAVYFCASESLDDMYYFDYWGQGTTLTVSS
VL: DIVMTQSQKFMSTSVGDRVSVTCKASQNVGVNVAWYQQKPGQSPKALIYSASYRYSGVPDRFTGSGSGTDFTLTISNVQSEDLAEYFCQQYHSYLYTFGGGTKLEIK
[2]
  absorbance (450 nm): ≥ 0.3
[6]
  absorbance (450 nm): ≥ 0.3
[11]
  absorbance (450 nm): ≥ 0.3
